Read-outs that look alike come from different tables or passages of the source.
What was measured:
[1] = target: HA of A/Taiwan/2/2013 (H6) (Influenza A virus A/Taiwan/2/2013 (H6)); experiment: ELISA, recombinant HA
[2] = target: HA of A/chicken/Germany/N/1948 (H10N7) (influenza A virus (H10N7)); experiment: ELISA, recombinant HA
[3] = target: HA of A/Netherlands/219/2003 (H7N7) (influenza A virus (H7N7)); experiment: ELISA, recombinant HA
[4] = target: HA of A/Fort Monthouth/1947 (H1N1) (influenza A virus (H1N1)); experiment: ELISA, recombinant HA
[5] = target: HA of A/shearwater/Western Australia/2576/1979 (H15N9) (influenza A virus (H15N9)); experiment: ELISA, recombinant HA
[6] = target: HA of A/Hong Kong/1073/99 (H9) (influenza A virus (H9)); experiment: ELISA
[7] = target: HA of A/New York/107/2003 (H7N2) (influenza A virus (H7N2)); experiment: ELISA
[8] = target: HA of A/Texas/50/2012 (H3N2) (influenza A virus (H3N2)); experiment: ELISA
[9] = target: HA of A/Switzerland/9715293/2013 (H3) (influenza A virus (H3)); experiment: ELISA
[10] = target: HA of A/mallard duck/Astrakhan/263/1982 (H14N5) (influenza A virus (H14N5)); experiment: ELISA
[11] = target: HA of A/Solomon Islands/03/2006 (H1N1) (influenza A virus (H1N1)); experiment: ELISA
[12] = target: HA of A/gull/Maryland/704/1977 (H13) (influenza A virus (H13)); experiment: ELISA
[13] = target: HA of A/black-headed gull/Sweden/4/1999 (H16) (influenza A virus (H16)); experiment: ELISA
[14] = target: HA of A/Shanghai/2/2013 (H7N9) (influenza A virus (H7N9)); experiment: ELISA
[15] = target: HA of A/Indonesia/5/2005 (H5N1) (influenza A virus (H5N1)); experiment: ELISA
[16] = target: HA of A/Minnesota/11/10 (H3) (influenza A virus (H3)); experiment: ELISA
[17] = target: HA of A/Texas/36/1991 (H1N1) (influenza A virus (H1N1)); experiment: ELISA
[18] = target: HA of A/Vietnam/1203/2004 (H5N1) (influenza A virus (H5N1)); experiment: ELISA
[19] = target: dimeric recombinant soluble FcγRIIIa (CD16a), V176 (UniProt P08637)
Sequence of dimeric recombinant soluble FcγRIIIa (CD16a), V176 (P08637 17-208 F176V limits assumed): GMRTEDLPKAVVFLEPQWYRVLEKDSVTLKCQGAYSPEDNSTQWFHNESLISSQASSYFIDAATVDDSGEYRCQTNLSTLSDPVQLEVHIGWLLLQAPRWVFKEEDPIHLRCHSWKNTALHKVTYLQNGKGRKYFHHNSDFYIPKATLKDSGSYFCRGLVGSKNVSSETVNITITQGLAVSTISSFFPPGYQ

[20] = target: HA of A/Hong Kong/1073/99 (H9) (influenza A virus (H9)); experiment: ELISA; remark: listed apart in the source
[21] = target: HA of A/Texas/50/2012 (H3N2) (influenza A virus (H3N2)); experiment: ELISA; remark: listed apart in the source
[22] = target: HA of A/Switzerland/9715293/2013 (H3) (influenza A virus (H3)); experiment: ELISA; remark: listed apart in the source
[23] = target: HA of A/mallard duck/Astrakhan/263/1982 (H14N5) (influenza A virus (H14N5)); experiment: ELISA; remark: listed apart in the source
[24] = target: HA of A/Solomon Islands/03/2006 (H1N1) (influenza A virus (H1N1)); experiment: ELISA; remark: listed apart in the source
[25] = target: HA of A/Netherlands/219/2003 (H7N7) (influenza A virus (H7N7)); experiment: ELISA
[26] = target: HA of A/Shanghai/2/2013 (H7N9) (influenza A virus (H7N9)); experiment: ELISA; remark: listed apart in the source
[27] = target: HA of A/Indonesia/5/2005 (H5N1) (influenza A virus (H5N1)); experiment: ELISA; remark: listed apart in the source
[28] = target: HA of A/Texas/36/1991 (H1N1) (influenza A virus (H1N1)); experiment: ELISA; remark: listed apart in the source
[29] = target: HA of A/shearwater/Western Australia/2576/1979 (H15N9) (influenza A virus (H15N9)); experiment: ELISA
[30] = target: HA of A/Taiwan/2/2013 (H6) (Influenza A virus A/Taiwan/2/2013 (H6)); experiment: ELISA, recombinant HA; remark: listed apart in the source
[31] = target: HA of A/Hong Kong/1073/99 (H9) (influenza A virus (H9)); experiment: ELISA, recombinant HA
[32] = target: HA of A/California/07/2004 (H3) (Influenza A virus A/California/07/2004 (H3)); experiment: ELISA, recombinant HA
[33] = target: HA of A/Texas/50/2012 (H3N2) (influenza A virus (H3N2)); experiment: ELISA, recombinant HA
[34] = target: HA of A/duck/Memphis/546/1974 (H11) (Influenza A virus A/duck/Memphis/546/1974 (H11)); experiment: ELISA, recombinant HA
[35] = target: HA of A/mallard duck/Astrakhan/263/1982 (H14N5) (influenza A virus (H14N5)); experiment: ELISA, recombinant HA
[36] = target: HA of A/Solomon Islands/03/2006 (H1N1) (influenza A virus (H1N1)); experiment: ELISA, recombinant HA
[37] = target: HA of A/chicken/Germany/N/1948 (H10N7) (influenza A virus (H10N7)); experiment: ELISA, recombinant HA; remark: listed apart in the source
[38] = target: HA of A/Netherlands/219/2003 (H7N7) (influenza A virus (H7N7)); experiment: ELISA, recombinant HA; remark: listed apart in the source
[39] = target: HA of A/Shanghai/2/2013 (H7N9) (influenza A virus (H7N9)); experiment: ELISA, recombinant HA
[40] = target: HA of A/Fort Monthouth/1947 (H1N1) (influenza A virus (H1N1)); experiment: ELISA, recombinant HA; remark: listed apart in the source
[41] = target: HA of A/Indonesia/5/2005 (H5N1) (influenza A virus (H5N1)); experiment: ELISA, recombinant HA
[42] = target: HA of A/turkey/Ontario/6118/1967 (H8) (Influenza A virus A/turkey/Ontario/6118/1967 (H8)); experiment: ELISA, recombinant HA
[43] = target: HA of A/Texas/36/1991 (H1N1) (influenza A virus (H1N1)); experiment: ELISA, recombinant HA
[44] = target: HA of A/Vietnam/1203/2004 (H5N1) (influenza A virus (H5N1)); experiment: ELISA, recombinant HA
[45] = target: HA of A/shearwater/Western Australia/2576/1979 (H15N9) (influenza A virus (H15N9)); experiment: ELISA, recombinant HA; remark: listed apart in the source
[46] = target: dimeric recombinant soluble FcγRIIIa (CD16a), V176 (UniProt P08637); remark: listed apart in the source
[47] = target: HA of A/Solomon Islands/03/2006 (H1N1) (influenza A virus (H1N1)); experiment: BLI, Fab on immobilized biotinylated HA
[48] = target: HA of A/Indonesia/5/2005 (H5N1) (influenza A virus (H5N1)); experiment: BLI, Fab on immobilized biotinylated HA
[49] = target: HA of A/Victoria/361/2011 (H3N2) (influenza A virus (H3N2)); experiment: BLI, Fab on immobilized biotinylated HA
[50] = target: HA of A/Vietnam/1203/2004 (H5N1) (influenza A virus (H5N1)); experiment: BLI, Fab on immobilized biotinylated HA
[51] = target: HA of A/black-headed gull/Sweden/4/1999 (H16) (influenza A virus (H16)); experiment: ELISA, recombinant HA
[52] = target: HA of A/Hong Kong/1073/99 (H9) (influenza A virus (H9)); experiment: ELISA, recombinant HA; remark: listed apart in the source
[53] = target: HA of A/Texas/50/2012 (H3N2) (influenza A virus (H3N2)); experiment: ELISA, recombinant HA; remark: listed apart in the source
[54] = target: HA of A/Switzerland/9715293/2013 (H3) (influenza A virus (H3)); experiment: ELISA, recombinant HA
[55] = target: HA of A/mallard duck/Astrakhan/263/1982 (H14N5) (influenza A virus (H14N5)); experiment: ELISA, recombinant HA; remark: listed apart in the source
[56] = target: HA of A/Solomon Islands/03/2006 (H1N1) (influenza A virus (H1N1)); experiment: ELISA, recombinant HA; remark: listed apart in the source
[57] = target: HA of A/Shanghai/2/2013 (H7N9) (influenza A virus (H7N9)); experiment: ELISA, recombinant HA; remark: listed apart in the source
[58] = target: HA of A/Indonesia/5/2005 (H5N1) (influenza A virus (H5N1)); experiment: ELISA, recombinant HA; remark: listed apart in the source
[59] = target: HA of A/Texas/36/1991 (H1N1) (influenza A virus (H1N1)); experiment: ELISA, recombinant HA; remark: listed apart in the source

FluA-20 (hybridoma-produced IgG) (antibody)
EC50 [1]: 0.147 µg/mL
EC50 [2]: 0.031 µg/mL
EC50 [3]: 0.029 µg/mL
EC50 [4]: 0.012 µg/mL
EC50 [5]: 0.015 µg/mL
EC50 [6]: 0.009 µg/mL
EC50 [7]: 0.808 µg/mL
EC50 [8]: 0.004 µg/mL
EC50 [9]: 0.019 µg/mL
EC50 [10]: 0.013 µg/mL
EC50 [11]: 0.005 µg/mL
EC50 [12]: 0.07 µg/mL
EC50 [13]: > 10 µg/mL
EC50 [14]: 0.066 µg/mL
EC50 [15]: 0.085 µg/mL
EC50 [16]: > 10 µg/mL
EC50 [17]: 0.004 µg/mL
EC50 [18]: 0.283 µg/mL
EC50 (read off the curve) [19]: 0.3 µg/mL
EC50 [20]: 0.41 µg/mL
EC50 [21]: 0.09 µg/mL
EC50 [22]: 0.55 µg/mL
EC50 [23]: 0.95 µg/mL
EC50 [24]: 0.05 µg/mL
EC50 [25]: 0.05 µg/mL
EC50 [26]: 0.12 µg/mL
EC50 [27]: 6.05 µg/mL
EC50 [28]: 0.05 µg/mL
EC50 [29]: 0.08 µg/mL
EC50 [30]: 0.061 µg/mL
EC50 [31]: 0.007 µg/mL
EC50 [32]: 0.008 µg/mL
EC50 [33]: 0.006 µg/mL
EC50 [34]: 0.072 µg/mL
EC50 [35]: 0.007 µg/mL
EC50 [36]: 0.008 µg/mL
EC50 [37]: 0.037 µg/mL
EC50 [38]: 0.006 µg/mL
EC50 [39]: 0.012 µg/mL
EC50 [40]: 0.007 µg/mL
EC50 [41]: 0.016 µg/mL
EC50 [42]: 0.005 µg/mL
EC50 [43]: 0.009 µg/mL
EC50 [44]: 0.142 µg/mL
EC50 [45]: 0.007 µg/mL
EC50 (read off the curve) [46]: 0.3 µg/mL

FluA-20 Fab
Kd [47]: 2 nM
Kd [48]: 88 nM
Kd [49]: 15 nM
Kd [50]: 122 nM

CR6261 (antibody)
EC50 [30]: 0.048 µg/mL
EC50 [36]: 0.013 µg/mL
EC50 [51]: 0.245 µg/mL
EC50 [40]: 0.043 µg/mL
EC50 [41]: 0.026 µg/mL
EC50 [43]: 0.025 µg/mL
EC50 [44]: 0.031 µg/mL
EC50 [45]: 0.061 µg/mL

rFluA-20 (recombinant FluA-20 IgG) (antibody)
EC50 [1]: 0.229 µg/mL
EC50 [52]: 0.407 µg/mL
EC50 [53]: 0.086 µg/mL
EC50 [54]: 0.548 µg/mL
EC50 [55]: 0.071 µg/mL
EC50 [56]: 0.047 µg/mL
EC50 [2]: 0.129 µg/mL
EC50 [3]: 0.054 µg/mL
EC50 [57]: 0.117 µg/mL
EC50 [4]: 0.02 µg/mL
EC50 [58]: 6.05 µg/mL
EC50 [59]: 0.046 µg/mL
EC50 [5]: 0.136 µg/mL
EC50 [20]: 0.007 µg/mL
EC50 [21]: 0.007 µg/mL
EC50 [23]: 0.007 µg/mL
EC50 [24]: 0.008 µg/mL
EC50 [25]: 0.005 µg/mL
EC50 [26]: 0.013 µg/mL
EC50 [27]: 0.016 µg/mL
EC50 [28]: 0.008 µg/mL
EC50 [29]: 0.007 µg/mL
EC50 [30]: 0.063 µg/mL
EC50 [32]: 0.009 µg/mL
EC50 [34]: 0.076 µg/mL
EC50 [37]: 0.041 µg/mL
EC50 [40]: 0.007 µg/mL
EC50 [42]: 0.005 µg/mL
EC50 [44]: 0.133 µg/mL

Reference: US20210252150A1
